In the supplement of paper PMC5998384:

Legend:
[1] = system: HeLa Kyoto; experiment: thermal stability score vs G1/S (z-score of summed log2 fold changes over temperatures); higher = more thermally stable than in G1/S
[2] = system: HeLa Kyoto; experiment: solubility in G1/S (NP-40 vs SDS abundance) (log2 ratio); higher = more soluble; details: cell cycle stage: G1/S
[3] = system: HeLa Kyoto; experiment: melting temperature (median over replicates), in situ; higher = more thermally stable
[4] = system: HeLa Kyoto; experiment: solubility change mitosis vs G1/S (difference of NP-40 vs SDS log2 ratios) (log2 ratio difference); higher = more soluble in mitosis
[5] = cell cycle stage: early G1 (4.5 h after nocodazole release)
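For melting temperature (median over replicates), in situ in this document: HeLa Kyoto cells synchronized by double thymidine or nocodazole block, proteins quantified by TMT10plex mass spectrometry, three independent biological replicates.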
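For solubility change mitosis vs G1/S (difference of NP-40 vs SDS log2 ratios) in this document: synchronized HeLa Kyoto cells (double thymidine block for G1/S, nocodazole release for mitosis), protein amounts in NP-40 versus SDS lysates quantified by mass spectrometry, three biological replicates.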
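For solubility in G1/S (NP-40 vs SDS abundance) in this document: HeLa Kyoto cells arrested at G1/S by double thymidine block, proteins quantified by TMT10plex mass spectrometry in mild NP-40 versus SDS extracts, three biological replicates.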
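For thermal stability score vs G1/S (z-score of summed log2 fold changes over temperatures) in this document: synchronized HeLa Kyoto cells, proteins quantified by TMT10plex mass spectrometry, three biological replicates, mitosis taken 0.5 h after nocodazole release, G1/S directly after double thymidine block.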

| Sequence | thermal stability score [1, 5] | thermal stability score ([1]; cell cycle stage: mitosis) | solubility in G1/S (log2) [2] | melting temperature ([3]; cell cycle stage: G1/S) [°C] | melting temperature ([3]; cell cycle stage: mitosis) [°C] | solubility change mitosis (log2) [4] |
| --- | --- | --- | --- | --- | --- | --- |
| MAALGVAEAVAAPHPAEGAETAEAVELSRALSRLLPGLEADSKPGRRRALEALRRALEEPGPAADPTAFQGPWARLLLPRLLRCLSDPAEGCRALAVHLLDLGLRRAARPRDALPRLLPALAARLAGPVPARRPPEACEELRLALVQLLGLAVDLCGAALAPHLDDALRALRCSLLDPFAAVRRESCSCAAALAQATPDHFHMQSESLIGPLMQTISHQHWKVRVAAIEATGAVIHFGNGKSVDDVLSHFAQRLFDDVPQVRRAVASVVGGWLLCLRDRYSFFHKLIPLLLSSLNDEVPEVRQLAASLWEDVGLQWQKENEEDLKDKLDFAPPTPPHYPPHERRPVLGCRELVFRNLSKILPALCHDITDWVVGTRVKSAQLLPVLLLHAEDHATQHLEVVLRTLFQACTDEEAAVVQSCTRSAELVGTFVSPEVFLKLILSTLKKTPSASGLLVLASAMRGCPREALQPHLAAIATELAQAHICQASENDLYLERLLLCVQALVSVCHEDCGVASLQLLDVLLTIVALAGATGLRDKAQETMDSLAMVEGVSSCQDLYRKHIGPLLERVTASHLDWTAHSPELLQFSVIVAQSGPALGEALPHVVPTLRACLQPSQDPQMRLKLFSILSTVLLRATDTINSQGQFPSYLETVTKDILAPNLQWHAGRTAAAIRTAAVSCLWALTSSEVLSAEQIRDVQETLMPQVLTTLEEDSKMTRLISCRIINTFLKTSGGMTDPEKLIRIYPELLKRLDDVSNDVRMAAASTLVTWLQCVKGANAKSYYQSSVQYLYRELLVHLDDPERAIQDAILEVLKEGSGLFPDLLVRETEAVIHKHRSATYCEQLLQHVQAVPATQ [DNAAF5] | 0.695 | 2.82 | 0.0447 | 48.1 | 48 | -0.172 |
| MAALMTPGTGAPPAPGDFSGEGSQGLPDPSPEPKQLPELIRMKRDGGRLSEADIRGFVAAVVNGSAQGAQIGAMLMAIRLRGMDLEETSVLTQALAQSGQQLEWPEAWRQQLVDKHSTGGVGDKVSLVLAPALAACGCKVPMISGRGLGHTGGTLDKLESIPGFNVIQSPEQMQVLLDQAGCCIVGQSEQLVPADGILYAARDVTATVDSLPLITASILSKKLVEGLSALVVDVKFGGAAVFPNQEQARELAKTLVGVGASLGLRVAAALTAMDKPLGRCVGHALEVEEALLCMDGAGPPDLRDLVTTLGGALLWLSGHAGTQAQGAARVAAALDDGSALGRFERMLAAQGVDPGLARALCSGSPAERRQLLPRAREQEELLAPADGTVELVRALPLALVLHELGAGRSRAGEPLRLGVGAELLVDVGQRLRRGTPWLRVHRDGPALSGPQSRALQEALVLSDRAPFAAPSPFAELVLPPQQ [TYMP] | -1.38 | -0.967 | 0.479 | 55.7 | 57.5 | -0.0175 |
| MAALTTLFKYIDENQDRYIKKLAKWVAIQSVSAWPEKRGEIRRMMEVAAADVKQLGGSVELVDIGKQKLPDGSEIPLPPILLGRLGSDPQKKTVCIYGHLDVQPAALEDGWDSEPFTLVERDGKLYGRGSTDDKGPVAGWINALEAYQKTGQEIPVNVRFCLEGMEESGSEGLDELIFARKDTFFKDVDYVCISDNYWLGKKKPCITYGLRGICYFFIEVECSNKDLHSGVYGGSVHEAMTDLILLMGSLVDKRGNILIPGINEAVAAVTEEEHKLYDDIDFDIEEFAKDVGAQILLHSHKKDILMHRWRYPSLSLHGIEGAFSGSGAKTVIPRKVVGKFSIRLVPNMTPEVVGEQVTSYLTKKFAELRSPNEFKVYMGHGGKPWVSDFSHPHYLAGRRAMKTVFGVEPDLTREGGSIPVTLTFQEATGKNVMLLPVGSADDGAHSQNEKLNRYNYIEGTKMLAAYLYEVSQLKD [CNDP2] | -6.23 | -11.6 | 0.253 | 54.4 | 53.4 | -0.148 |
| MAALYRPGLRLNWHGLSPLGWPSCRSIQTLRVLSGDLGQLPTGIRDFVEHSARLCQPEGIHICDGTEAENTATLTLLEQQGLIRKLPKYNNCWLARTDPKDVARVESKTVIVTPSQRDTVPLPPGGARGQLGNWMSPADFQRAVDERFPGCMQGRTMYVLPFSMGPVGSPLSRIGVQLTDSAYVVASMRIMTRLGTPVLQALGDGDFVKCLHSVGQPLTGQGEPVSQWPCNPEKTLIGHVPDQREIISFGSGYGGNSLLGKKCFALRIASRLARDEGWLAEHMLILGITSPAGKKRYVAAAFPSACGKTNLAMMRPALPGWKVECVGDDIAWMRFDSEGRLRAINPENGFFGVAPGTSATTNPNAMATIQSNTIFTNVAETSDGGVYWEGIDQPLPPGVTVTSWLGKPWKPGDKEPCAHPNSRFCAPARQCPIMDPAWEAPEGVPIDAIIFGGRRPKGVPLVYEAFNWRHGVFVGSAMRSESTAAAEHKGKIIMHDPFAMRPFFGYNFGHYLEHWLSMEGRKGAQLPRIFHVNWFRRDEAGHFLWPGFGENARVLDWICRRLEGEDSARETPIGLVPKEGALDLSGLRAIDTTQLFSLPKDFWEQEVRDIRSYLTEQVNQDLPKEVLAELEALERRVHKM [PCK2] | -2.32 | -1.91 | 0.00231 | 52.8 | 52.1 | -0.0852 |
| MAAMETETAPLTLESLPTDPLLLILSFLDYRDLINCCYVSRRLSQLSSHDPLWRRHCKKYWLISEEEKTQKNQCWKSLFIDTYSDVGRYIDHYAAIKKAWDDLKKYLEPRCPRMVLSLKEGAREEDLDAVEAQIGCKLPDDYRCSYRIHNGQKLVVPGLLGSMALSNHYRSEDLLDVDTAAGGFQQRQGLKYCLPLTFCIHTGLSQYIAVEAAEGRNKNEVFYQCPDQMARNPAAIDMFIIGATFTDWFTSYVKNVVSGGFPIIRDQIFRYVHDPECVATTGDITVSVSTSFLPELSSVHPPHYFFTYRIRIEMSKDALPEKACQLDSRYWRITNAKGDVEEVQGPGVVGEFPIISPGRVYEYTSCTTFSTTSGYMEGYYTFHFLYFKDKIFNVAIPRFHMACPTFRVSIARLEMGPDEYEEMEEEEEEEEEEDEDDDSADMDESDEDDEEERRRRVFDVPIRRRRCSRLF [FBXO3] | 0.236 | 0.497 | -0.00208 | 53.9 | 53.3 | -0.0407 |
| MAAPALGLVCGRCPELGLVLLLLLLSLLCGAAGSQEAGTGAGAGSLAGSCGCGTPQRPGAHGSSAAAHRYSREANAPGPVPGERQLAHSKMVPIPAGVFTMGTDDPQIKQDGEAPARRVTIDAFYMDAYEVSNTEFEKFVNSTGYLTEAEKFGDSFVFEGMLSEQVKTNIQQAVAAAPWWLPVKGANWRHPEGPDSTILHRPDHPVLHVSWNDAVAYCTWAGKRLPTEAEWEYSCRGGLHNRLFPWGNKLQPKGQHYANIWQGEFPVTNTGEDGFQGTAPVDAFPPNGYGLYNIVGNAWEWTSDWWTVHHSVEETLNPKGPPSGKDRVKKGGSYMCHRSYCYRYRCAARSQNTPDSSASNLGFRCAADRLPTMD [SUMF1] | -1.37 | 2.23 | 0.277 | 53.7 | 55.1 | 0.0674 |
| MAAPAPGLISVFSSSQELGAALAQLVAQRAACCLAGARARFALGLSGGSLVSMLARELPAAVAPAGPASLARWTLGFCDERLVPFDHAESTYGLYRTHLLSRLPIPESQVITINPELPVEEAAEDYAKKLRQAFQGDSIPVFDLLILGVGPDGHTCSLFPDHPLLQEREKIVAPISDSPKPPPQRVTLTLPVLNAARTVIFVATGEGKAAVLKRILEDQEENPLPAALVQPHTGKLCWFLDEAAARLLTVPFEKHSTL [PGLS] | -2.51 | -2.63 | 0.254 | 54.8 | 55.2 | 0.237 |
| MAAPAQPKKIVAPTVSQINAEFVTQLACKYWAPHIKKKSPFDIKVIEDIYEKEIVKSRFAIRKIMLLEFSQYLENYLWMNYSPEVSSKAYLMSICCMVNEKFRENVPAWEIFKKKPDHFPFFFKHILKAALAETDGEFSLHEQTVLLLFLDHCFNSLEVDLIRSQVQQLISLPMWMGLQLARLELELKKTPKLRKFWNLIKKNDEKMDPEAREQAYQERRFLSQLIQKFISVLKSVPLSEPVTMDKVHYCERFIELMIDLEALLPTRRWFNTILDDSHLLVHCYLSNLVRREEDGHLFSQLLDMLKFYTGFEINDQTGNALTENEMTTIHYDRITSLQRAAFAHFPELYDFALSNVAEVDTRESLVKFFGPLSSNTLHQVASYLCLLPTLPKNEDTTFDKEFLLELLVSRHERRISQIQQLNQMPLYPTEKIIWDENIVPTEYYSGEGCLALPKLNLQFLTLHDYLLRNFNLFRLESTYEIRQDIEDSVSRMKPWQSEYGGVVFGGWARMAQPIVAFTVVEVAKPNIGENWPTRVRADVTINLNVRDHIKDEWEGLRKHDVCFLITVRPTKPYGTKFDRRRPFIEQVGLVYVRGCEIQGMLDDKGRVIEDGPEPRPNLRGESRTFRVFLDPNQYQQDMTNTIQNGAEDVYETFNIIMRRKPKENNFKAVLETIRNLMNTDCVVPDWLHDIILGYGDPSSAHYSKMPNQIATLDFNDTFLSIEHLKASFPGHNVKVTVEDPALQIPPFRITFPVRSGKGKKRKDADVEDEDTEEAKTLIVEPHVIPNRGPYPYNQPKRNTIQFTHTQIEAIRAGMQPGLTMVVGPPGTGKTDVAVQIISNIYHNFPEQRTLIVTHSNQALNQLFEKIMALDIDERHLLRLGHGEEELETEKDFSRYGRVNYVLARRIELLEEVKRLQKSLGVPGDASYTCETAGYFFLYQVMSRWEEYISKVKNKGSTLPDVTEVSTFFPFHEYFANAPQPIFKGRSYEEDMEIAEGCFRHIKKIFTQLEEFRASELLRSGLDRSKYLLVKEAKIIAMTCTHAALKRHDLVKLGFKYDNILMEEAAQILEIETFIPLLLQNPQDGFSRLKRWIMIGDHHQLPPVIKNMAFQKYSNMEQSLFTRFVRVGVPTVDLDAQGRARASLCNLYNWRYKNLGNLPHVQLLPEFSTANAGLLYDFQLINVEDFQGVGESEPNPYFYQNLGEAEYVVALFMYMCLLGYPADKISILTTYNGQKHLIRDIINRRCGNNPLIGRPNKVTTVDRFQGQQNDYILLSLVRTRAVGHLRDVRRLVVAMSRARLGLYIFARVSLFQNCFELTPAFSQLTARPLHLHIIPTEPFPTTRKNGERPSHEVQIIKNMPQMANFVYNMYMHLIQTTHHYHQTLLQLPPAMVEEGEEVQNQETELETEEEAMTVQADIIPSPTDTSCRQETPAFQTDTTPSETGATSTPEAIPALSETTPTVVGAVSAPAEANTPQDATSAPEETK [AQR] | 0.352 | 2.51 | -0.435 | 48 | 50 | 0.0502 |
| MAAPEEHDSPTEASQPIVEEEETKTFKDLGVTDVLCEACDQLGWTKPTKIQIEAIPLALQGRDIIGLAETGSGKTGAFALPILNALLETPQRLFALVLTPTRELAFQISEQFEALGSSIGVQSAVIVGGIDSMSQSLALAKKPHIIIATPGRLIDHLENTKGFNLRALKYLVMDEADRILNMDFETEVDKILKVIPRDRKTFLFSATMTKKVQKLQRAALKNPVKCAVSSKYQTVEKLQQYYIFIPSKFKDTYLVYILNELAGNSFMIFCSTCNNTQRTALLLRNLGFTAIPLHGQMSQSKRLGSLNKFKAKARSILLATDVASRGLDIPHVDVVVNFDIPTHSKDYIHRVGRTARAGRSGKAITFVTQYDVELFQRIEHLIGKKLPGFPTQDDEVMMLTERVAEAQRFARMELREHGEKKKRSREDAGDNDDTEGAIGVRNKVAGGKMKKRKGR [DDX47] | 0.865 | 1.97 | -1.22 | 50.9 | 51.3 | 0.607 |
